According to patent US20240182596A1 (TUBULIS, published 2024):

Legend:
[1] = target: T1, human NaPi2b on NaPi2b-positive cell lines OVCAR-3 and HCC-78 (human, UniProt O95436 1-690); test: flow cytometry on HCC-78 cells, one-site fit
T1 construct: Endogenous protein
T1 sequence: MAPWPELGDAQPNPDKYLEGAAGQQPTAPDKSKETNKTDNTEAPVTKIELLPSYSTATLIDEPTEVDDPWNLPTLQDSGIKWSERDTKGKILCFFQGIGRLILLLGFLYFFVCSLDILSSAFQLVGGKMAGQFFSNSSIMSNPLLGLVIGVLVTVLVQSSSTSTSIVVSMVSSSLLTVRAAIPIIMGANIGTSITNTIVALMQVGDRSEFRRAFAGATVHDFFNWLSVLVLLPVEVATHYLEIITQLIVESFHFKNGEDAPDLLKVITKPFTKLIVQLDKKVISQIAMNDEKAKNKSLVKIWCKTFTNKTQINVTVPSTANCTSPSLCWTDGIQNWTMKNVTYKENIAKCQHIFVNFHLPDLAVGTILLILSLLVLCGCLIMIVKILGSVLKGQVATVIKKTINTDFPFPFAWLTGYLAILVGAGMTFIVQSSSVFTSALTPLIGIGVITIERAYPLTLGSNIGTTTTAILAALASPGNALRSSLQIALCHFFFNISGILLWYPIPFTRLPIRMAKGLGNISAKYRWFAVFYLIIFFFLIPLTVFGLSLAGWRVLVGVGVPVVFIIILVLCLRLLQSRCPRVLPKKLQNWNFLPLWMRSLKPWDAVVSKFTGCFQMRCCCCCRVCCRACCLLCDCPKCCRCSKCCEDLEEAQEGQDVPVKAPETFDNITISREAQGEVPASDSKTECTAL

[2] = target: T1, human NaPi2b on NaPi2b-positive cell …; test: flow cytometry on OVCAR-3 cells, one-site fit
[3] = target: T2, purified recombinant human Napi2b antigen consisting of Napi2b-extracellular-loop2 expressed as … (human, UniProt O95436 234-362, limits assumed); test: ELISA, coated Napi2b-extracellular-loop2-Fc-6-His, apparent KD from one-site fit
T2 construct: Expressed in Expi-HEK293 cells; also called immobilized human NaPi2B; not shown: Fc part; 6-His tag
T2 sequence: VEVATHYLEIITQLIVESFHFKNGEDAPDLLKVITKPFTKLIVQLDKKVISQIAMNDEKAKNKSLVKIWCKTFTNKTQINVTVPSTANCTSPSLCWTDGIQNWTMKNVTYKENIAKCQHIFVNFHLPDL

[4] = target: T2, purified recombinant human Napi2b …; test: ELISA on the isolated immobilized protein; table column Binding KD (nmol/L), ELISA
[5] = target: T3, recombinant hexameric C1q complement protein (human) (human, UniProt P02745 23-245; P02746 28-253; P02747 29-245); test: HTRF Human C1q Binding Kit (Cisbio), HTRF ratio at 70 nM antibody with the diluent-only background subtracted
T3 construct: also called complement factor C1q
T3 sequence (P02745 23-245 limits assumed, chain 1 of 3): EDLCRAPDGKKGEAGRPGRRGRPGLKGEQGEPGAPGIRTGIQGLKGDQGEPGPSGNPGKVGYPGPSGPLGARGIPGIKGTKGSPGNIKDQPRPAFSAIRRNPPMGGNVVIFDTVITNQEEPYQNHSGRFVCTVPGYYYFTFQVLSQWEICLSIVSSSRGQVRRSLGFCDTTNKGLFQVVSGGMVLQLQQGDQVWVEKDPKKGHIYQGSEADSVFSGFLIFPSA
T3 sequence (P02746 28-253 limits assumed, chain 2 of 3): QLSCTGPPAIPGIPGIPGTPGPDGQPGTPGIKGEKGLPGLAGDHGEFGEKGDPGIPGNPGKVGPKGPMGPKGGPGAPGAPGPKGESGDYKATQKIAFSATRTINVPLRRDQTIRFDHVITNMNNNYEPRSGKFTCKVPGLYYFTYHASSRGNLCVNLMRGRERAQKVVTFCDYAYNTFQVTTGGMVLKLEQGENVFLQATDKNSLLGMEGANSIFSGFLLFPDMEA
T3 sequence (P02747 29-245 limits assumed, chain 3 of 3): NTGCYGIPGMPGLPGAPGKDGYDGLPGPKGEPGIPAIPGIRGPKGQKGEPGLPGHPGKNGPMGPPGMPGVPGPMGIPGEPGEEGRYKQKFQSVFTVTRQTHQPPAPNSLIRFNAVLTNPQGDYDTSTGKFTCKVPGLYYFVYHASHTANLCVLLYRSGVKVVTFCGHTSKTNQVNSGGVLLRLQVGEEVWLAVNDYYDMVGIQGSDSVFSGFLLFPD

[6] = target: T4, recombinant human FcγRI (FcγR-SmBiT, Lumit assay) (human, UniProt P12314 16-292); test: Lumit FcγRI Binding Immunoassay (Promega), competition with Tracer-LgBiT for FcγRI-SmBiT, falling luminescence means binding, n=1
T4 construct: Kit reagent (Promega); also called FcγRI (CD64); not shown: SmBiT label of the kit
T4 sequence (P12314 16-292): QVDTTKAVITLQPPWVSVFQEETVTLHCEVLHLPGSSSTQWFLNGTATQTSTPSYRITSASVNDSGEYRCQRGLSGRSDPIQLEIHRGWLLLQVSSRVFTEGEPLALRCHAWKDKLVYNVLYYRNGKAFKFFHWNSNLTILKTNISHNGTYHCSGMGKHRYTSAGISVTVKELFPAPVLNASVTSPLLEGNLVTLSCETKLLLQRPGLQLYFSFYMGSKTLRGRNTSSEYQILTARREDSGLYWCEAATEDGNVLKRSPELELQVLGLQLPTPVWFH

[7] = target: T5, human Napi2c-mCherry on HEK293 cells (human, UniProt Q8N130 1-599); test: flow cytometry on HEK293 cells expressing human Napi2c-mCherry (panel Napi2c-HEK293), MFI ratio to the non-specific binding control
T5 construct: whole, on cells; also called Napi2c (SLC34A3); not shown: mCherry fusion
T5 sequence (looked up): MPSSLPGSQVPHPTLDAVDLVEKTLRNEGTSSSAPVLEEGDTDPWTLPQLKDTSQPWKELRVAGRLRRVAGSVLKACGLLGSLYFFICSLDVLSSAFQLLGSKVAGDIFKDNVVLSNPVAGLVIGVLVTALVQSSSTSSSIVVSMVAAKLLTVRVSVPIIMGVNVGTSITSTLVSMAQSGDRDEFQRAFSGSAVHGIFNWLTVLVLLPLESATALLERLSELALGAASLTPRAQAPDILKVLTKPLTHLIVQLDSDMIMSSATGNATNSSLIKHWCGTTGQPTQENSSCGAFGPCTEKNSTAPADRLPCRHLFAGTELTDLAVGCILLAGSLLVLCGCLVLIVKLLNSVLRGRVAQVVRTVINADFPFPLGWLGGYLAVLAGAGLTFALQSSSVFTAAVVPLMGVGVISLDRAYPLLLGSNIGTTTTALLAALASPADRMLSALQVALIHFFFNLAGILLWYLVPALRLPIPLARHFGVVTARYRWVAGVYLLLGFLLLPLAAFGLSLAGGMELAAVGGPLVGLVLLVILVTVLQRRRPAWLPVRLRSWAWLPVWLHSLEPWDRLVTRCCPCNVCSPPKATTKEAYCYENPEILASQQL

[8] = target: T1, human NaPi2b on NaPi2b-positive cell …; test: flow cytometry on NaPi2b-positive HCC-78 cells, Alexa-dye-labeled anti-human IgG H+L secondary antibody, MFI ratio normalized to the non-specific binding control
[9] = target: T6, FcγRIIIa (CD16) (V158) (Homo sapiens, UniProt P08637); test: Lumit FcγRIIIa (V158) Binding Immunoassay (Promega), left panel FcγRIIIa (CD16) (V158), competition with Tracer-LgBiT for FcγR-SmBiT, falling luminescence means binding, n=1
T6 construct: m21 joins both polymorphic variants; also called V158 variant of m21
T6 sequence (P08637 17-208 F176V limits assumed): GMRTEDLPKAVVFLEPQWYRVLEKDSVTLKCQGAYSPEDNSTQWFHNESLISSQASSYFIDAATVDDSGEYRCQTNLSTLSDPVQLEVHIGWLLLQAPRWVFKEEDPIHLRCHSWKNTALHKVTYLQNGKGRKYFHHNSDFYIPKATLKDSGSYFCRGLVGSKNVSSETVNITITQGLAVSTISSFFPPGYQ

[10] = target: T7, human Napi2b-mCherry on HEK293 cells (human, UniProt O95436 1-690); test: flow cytometry on HEK293 cells stably expressing human full-length NaPi2b-mCherry, Alexa-dye anti-human IgG H+L secondary antibody, MFI ratio, one-site specific binding fit; the Kd table prints no unit, the concentration axis is in nM
T7 construct: also called Napi2b (SLC34A2); HEK293 cells overexpressing Napi2b
T7 sequence: T1 sequence

B1: AV25 mAb, LALA-silenced (AV25 HC-LALA) (antibody, human IgG1, kappa, L234A L235A)
heavy: not shown
light: DIQMTQSPSSLSASVGDRVTITCSASQDIGNFLNWYQQKPGKTVKVLIYYASSLYSGVPSRFSGSGSGTDYTLTISSLQPEDFATYYCQQYSKLPLTFGQGTKLELKRTVAAPSVFIFPPSDEQLKSGTASVVCLLNNFYPREAKVQWKVDNALQSGNSQESVTEQDSKDSTYSLSSTLTLSKADYEKHKVYACEVTHQGLSSPVTKSFNRGEC
notes: also called unmodified AV25 mAb
Kd [1]: 0.42 mg/L
Kd [2]: 0.44 mg/L
Kd [3]: 0.0106 mg/L
Kd [4]: 0.071 nM
binding result [5]: no binding (tested: 70 nM)
binding result [6]: binds
binding result [7]: no binding (tested: 200 nM)
EC50 (read off the curve) [8]: ~0.4 mg/L
binding result [9]: binds
Kd [10]: 1.52 nM
